System: MS2 coat protein
Experiment: apparent KD of MS2 coat protein; designed switch direction (-1 OFF switch, 1 ON switch): -1; higher = weaker reporter binding
Summary of the method: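 The buffer was Tris-HCl pH 7.5 with KCl, MgCl2, BSA, DTT, tRNA and Tween-20. In it, SNAP-549-labelled MS2 coat protein was titrated in doubling steps from 0.7 or 1.5 nM to 3 µM over chip-bound RNA switches transcribed by stalled E. coli RNA polymerase on Illumina chips. Apparent KD is the per-design median over clusters of curve fits to normalised fluorescence.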

[1] = Eterna round: R95, input ligand: microRNA oligo, concentration not stated
[2] = input ligand: microRNA oligo, concentration not stated
[3] = Eterna round: R95, input ligand: FMN 200 uM
[4] = Eterna round: R95, input ligand: none

Sequence	apparent KD of MS2 coat protein [1] [nM]	apparent KD of MS2 coat protein (input ligand: FMN 200 uM) [nM]	apparent KD of MS2 coat protein [2] [nM]	apparent KD of MS2 coat protein (input ligand: none) [nM]	apparent KD of MS2 coat protein [3] [nM]	apparent KD of MS2 coat protein [4] [nM]
GUGGUACAUGAGGAUCACCCAUGUUAGGAUAUCGCGUGAGGUUUUACUUCCGCGCGCGCGAGAAGGGACGUCUU (puzzle: Exclusion 1)	23.3					
GCAGCAACUCUAAUCAAAACCACAUGAGGAUCACCCAUGUCUCAGGAUAUGGUCUGGAUUACAGGCCAGAAGGGAGAAAGCUGC [Eli exng3 - 050] (Eterna round: R96, puzzle: Exclusion NG 3)		13.3	10.6	19.4		
UCAAGUAUGUAGGAUAUCGAUGUCUUCGGACAUCGAGAAGGACGUACAUGAGGAUCACCCAUGUAACUUGCAUG [Exclusion 6 - B - 10:a] (puzzle: Exclusion 6)	55.2					
GAUUAUGCGAGCUUUAGGGACAUGAGGAUCACCCAUGUUCGUCUUAUUGAUCUAGGUACGCUGACAUACCUAAAUCU [Mod of one of jandersonlee's solutions 2] (puzzle: Sensor v3, turn-off variant 1)	36.1				22.4	24.4
CCAGCGAGUGUGAGGAUAUGCUGGUCCUUGGAUCAGCAGAAGGCACAUGAGGAUCACCCAUGUGAGGACGUUGG [JL bmx4 3.31] (puzzle: Brourd's mod of Exclusion 4)	23.9					
AGAUCACAUGAGGAUCACCCAUGUGAGGAUAUAGAUUCAAGAGCUUCGGCUCUAAAGUCUAGAAGGCACUAUGA [EX1 #47] (Eterna round: R97, puzzle: Exclusion 1)		29.1		25.4		
AAUAUCGUAGGAUAUUAAUACUCAGACAUGAGGAUCACCCAUGUUUGGUGGGUCGGAGAAUGAGAAGGGCGAUGAA [EX5 #15] (Eterna round: R97, puzzle: Exclusion 5)		86		54.7		
GAUUGACAUGAGGAUCACCCAUGUGAGGAUAUCGGCCGGACCUUGUUAGCUUCCACCGCGAGAAGGCACAUCGG [Exclusion 1 V30] (puzzle: Exclusion 1)	17					
UUUAAUUUUUUUUUUUUACAAGCUUUUUGCUCGUCUUAUACAUGAGGAUCACCCAUGUAGGUGGGAGAUAAAUUAUC [JMF 23] (puzzle: Sensor v3, turn-off variant 2)	392				87.8	131
AAUAAGGGAGGAUAUACAUUAAAUCCUAUUUUCUUUUUGUUACAUGAGGAUCACCCAUGUAGAAGGCCCAAUAA [lam1] (Eterna round: R97, puzzle: Exclusion 2)		54.5		23		
CGGCACCGAGGAUAUACAUGAGGAUCACCCAUGUUUGUUGGGCCCUUAAGAUCUACGUGUAGAAGGUGGGUCGA [Edaribi] (Eterna round: R96, puzzle: Exclusion 3)		241	147	173		
UUGAGCAGACGGAGAUCCAACAUGAGGAUCACCCAUGUCUCAUAAGCUUUUUGUUCAUCUUAUUGUACCUUGGUGCU [Mat - Sensor v3 - turn-off var 1 - JL Mod - D23] (puzzle: Sensor v3, turn-off variant 1)	8.53				47	40.5
CGGUACUGAGGAUAUACAUGAGGAUCACCCAUGUGUUCAAGCUAGCGUACUGGCAUUAGUAGAAGGCGGUGCUG [JL-ex3-3.21 Brourd mod] (puzzle: Exclusion 3)	14.6				26.7	16.9
CUUUCGUGAGGAUAUCAGUAGUAAAAAUAUAAAAUUACUACUGAGAAGGCACAUGAGGAUCACCCAUGUUCCUC [salish99_ex3_r3_100] (puzzle: Exclusion 4)	24.1					
UAAUAACAUGUAGGAUAUGCGUGGCGAAGCUAUGCAGAAGGACAUGAGGAUCACCCAUGUUAAAGCGUCUGCGUACAGAUGCGA [Mat - Exclusion NG 1 - Mod of JL - D97] (Eterna round: R96, puzzle: Exclusion NG 1)		188	30.1	31.1		
GGCUUGUAAGGAUAUGCGAAGGGAAGGAGAGGGACAGAGAAGCAGAAGGUACAUGAGGAUCACCCAUGUAAGGG [AK-MS2ROC-r4-exclusion4-7] (Eterna round: R97, puzzle: Exclusion 4)		247		94.9		
ACAUGAGGAUCACCCAUGUCCGGUUGGUCUGUUCCGGCUGUCGAGGAUAUAGUCCGGUGUUCGCGCUAGAAGGCGAGGGCUGGA [Aenatbe mod 47] (Eterna round: R96, puzzle: Exclusion NG 3)		1180	227	397		

Sequence	apparent KD of MS2 coat protein [1] [nM]	apparent KD of MS2 coat protein (input ligand: FMN 200 uM) [nM]	apparent KD of MS2 coat protein [2] [nM]	apparent KD of MS2 coat protein (input ligand: none) [nM]	apparent KD of MS2 coat protein [3] [nM]	apparent KD of MS2 coat protein [4] [nM]
GCCUCACAUGAGGAUCACCCAUGUCAGGAUAUCUAAGGCGAAGUGCAAGCACCUCGUGAGAGAAGGGACGUCAA [Dienononen] (puzzle: Exclusion 1)	20.9					
GACUUCUCUGAGGAUAUUGCAUCAUACGAUAAAUAAGAAGGCAGAACAUGAGGAUCACCCAUGUGGGUUUCAAG [Bingo-Bango-34] (Eterna round: R97, puzzle: Exclusion 6)		170		81.4		
GCACGGAAUGUAGGAUAUUAGUGCGAUUAGCACUGAGAAGGACAUGAGGAUCACCCAUGUUCCUCAAUAAUAAACCUUCCGUGC [Eli exng1 - 044] (Eterna round: R96, puzzle: Exclusion NG 1)		13	10.2	13.3		
ACGUGAUAUCUGUCGGUGGACAUGAGGAUCACCCAUGUAAGCUUUUUGCUCGUCUUAUAACCCGGUGACAGACCUUC [Tixeed] (puzzle: Sensor v3, turn-off variant 1)	268				33.7	37.3
GAGAGACGAGGAUAUGCAGGAGUGCAGUCAGGUUCCAAAAUACAUGAGGAUCACCCAUGUAGAAGGUGUCAUCU [Eternabot (L2) Solution 26] (Eterna round: R97, puzzle: Exclusion 2)		16.6		15.6		
UACAUGAGGAUCACCCAUGUUUUGUCGUGUAUGGUAUUUAUCUAGGAUAUCAAUGUAUGUAUUUAUGAGAAGGAGAAUAUUAAU [JMF's solution 43] (Eterna round: R96, puzzle: Exclusion NG 3)		47.2	27.4	40.9		
GCGGAGUAUGUAGGAUAUCGGUCAGUUUCUGAUCGAGAAGGACAUGAGGAUCACCCAUGUAAAUUGCCCGCUUUGUGGGUCCGC [JL ENG1 3.61] (Eterna round: R96, puzzle: Exclusion NG 1)		36.5	13.2	17.8		
CGGUAACAUGAGGAUCACCCAUGUGAGGAUAUCGUACGUUCGUCGAUAGACGAUCGUACGAGAAGGCAUGACCG [Mat - Exclusion 1 - Eli Mod - D33] (Eterna round: R97, puzzle: Exclusion 1)		21.4		43.9		
UUUAAUUUUUUUUUUUUACAAGCUUUUUGCUCGUCUUAUACAUGAGGAUCACCCAUGUGGGUAGAGAGUAAAUUAUC [JMF 59] (Eterna round: R96, puzzle: Sensor v3, turn-off variant 2)		21.1	102	19.3		
GAUUGAGAGCAGGAUAUCUUAGAAAUGUAUGAAAGAGAAGGGCUCACAUGAGGAUCACCCAUGUGGUCCUAGAU [JL Dibiri mod 17] (puzzle: Exclusion 6)	22.8				244	27.5
UGUACUAUGCGAGCUGACUUGCGUAGUGCAGCAGGUGAAACAUGAGGAUCACCCAUGUCCUCAUUUGCUCGUCUUAU [SL-sv3-2.02 JL mod] (Eterna round: R96, puzzle: Sensor v3, turn-off variant 2)		45.2	399	43.1		
CCUCUGUAAGGAUAUACGGAGACCACUGGAAUCAGUGGAAAGUAGAAGGUACAUGAGGAUCACCCAUGUGAGAA [Laveatisce] (puzzle: Exclusion 4)	36.2				36.5	49.3
GAAAGACAUGAGGAUCACCCAUGUCAGGAUAUGAUGCCAGCGUAGCUAGUAGGUUUUGUCAGAAGGGACGGGUU [Eternabot (L1) Solution 70] (Eterna round: R97, puzzle: Exclusion 1)		32.2		27.4		
GGAGCAAUGGAGGAUAUCAGGAGCGCUGCUUACUGAGAAGGCCGUACAUGAGGAUCACCCAUGUCUGGGUACGC [Eternabot (L1) Solution 21] (Eterna round: R97, puzzle: Exclusion 6)		176		167		
UUAUAUAAUGUGAGGAUAUGCUGGUCGAGAGAUCAGCAGAAGGCACAUGAGGAUCACCCAUGUAGUAAAUUUUA [Mat - Exclusion 4 - JL Mod - D14] (puzzle: Brourd's mod of Exclusion 4)	19.8					
AGGUGUAGAGGAUAUCGACUUUCUCACAUGAGGAUCACCCAUGUCCUGGUCACCCAGGACCGAGAAGGCUACACCA [Omei Ex5 D27] (Eterna round: R97, puzzle: Exclusion 5)		204		27.6		
UCGCUCCGUGUAGGAUAUCGCCGUACUAUACGGCGAGAAGGACAUGAGGAUCACCCAUGUAUGUUAUUAUCACGCGUGGCGCAA [Design 60] (Eterna round: R96, puzzle: Exclusion NG 1)		21	11.5	22.2		
